Reference: publication PMC7164637

Target: 2019-nCoV spike (S) glycoprotein, prefusion-stabilized ectodomain (residues 1-1208, two stabilizing proline mutations) (2019-nCoV)
Assay: cryo-EM structure

2019-nCoV spike (S) glycoprotein, prefusion-stabilized ectodomain (residues 1-1208, two stabilizing proline mutations) (domain or fragment)
stoichiometry N: 3
